Measured values reported in IntAct's records for PubMed 21565175.

Columns and labels:
[1] = target: ARHGAP30, Q7Z6I6-2
[2] = target: ARHGAP30, Q7Z6I6-2; remark: listed apart in the source
[3] = target: rhg31_mouse Arhgap31 (UniProt A6X8Z5)
Sequence of rhg31_mouse Arhgap31 (A6X8Z5 whole entry): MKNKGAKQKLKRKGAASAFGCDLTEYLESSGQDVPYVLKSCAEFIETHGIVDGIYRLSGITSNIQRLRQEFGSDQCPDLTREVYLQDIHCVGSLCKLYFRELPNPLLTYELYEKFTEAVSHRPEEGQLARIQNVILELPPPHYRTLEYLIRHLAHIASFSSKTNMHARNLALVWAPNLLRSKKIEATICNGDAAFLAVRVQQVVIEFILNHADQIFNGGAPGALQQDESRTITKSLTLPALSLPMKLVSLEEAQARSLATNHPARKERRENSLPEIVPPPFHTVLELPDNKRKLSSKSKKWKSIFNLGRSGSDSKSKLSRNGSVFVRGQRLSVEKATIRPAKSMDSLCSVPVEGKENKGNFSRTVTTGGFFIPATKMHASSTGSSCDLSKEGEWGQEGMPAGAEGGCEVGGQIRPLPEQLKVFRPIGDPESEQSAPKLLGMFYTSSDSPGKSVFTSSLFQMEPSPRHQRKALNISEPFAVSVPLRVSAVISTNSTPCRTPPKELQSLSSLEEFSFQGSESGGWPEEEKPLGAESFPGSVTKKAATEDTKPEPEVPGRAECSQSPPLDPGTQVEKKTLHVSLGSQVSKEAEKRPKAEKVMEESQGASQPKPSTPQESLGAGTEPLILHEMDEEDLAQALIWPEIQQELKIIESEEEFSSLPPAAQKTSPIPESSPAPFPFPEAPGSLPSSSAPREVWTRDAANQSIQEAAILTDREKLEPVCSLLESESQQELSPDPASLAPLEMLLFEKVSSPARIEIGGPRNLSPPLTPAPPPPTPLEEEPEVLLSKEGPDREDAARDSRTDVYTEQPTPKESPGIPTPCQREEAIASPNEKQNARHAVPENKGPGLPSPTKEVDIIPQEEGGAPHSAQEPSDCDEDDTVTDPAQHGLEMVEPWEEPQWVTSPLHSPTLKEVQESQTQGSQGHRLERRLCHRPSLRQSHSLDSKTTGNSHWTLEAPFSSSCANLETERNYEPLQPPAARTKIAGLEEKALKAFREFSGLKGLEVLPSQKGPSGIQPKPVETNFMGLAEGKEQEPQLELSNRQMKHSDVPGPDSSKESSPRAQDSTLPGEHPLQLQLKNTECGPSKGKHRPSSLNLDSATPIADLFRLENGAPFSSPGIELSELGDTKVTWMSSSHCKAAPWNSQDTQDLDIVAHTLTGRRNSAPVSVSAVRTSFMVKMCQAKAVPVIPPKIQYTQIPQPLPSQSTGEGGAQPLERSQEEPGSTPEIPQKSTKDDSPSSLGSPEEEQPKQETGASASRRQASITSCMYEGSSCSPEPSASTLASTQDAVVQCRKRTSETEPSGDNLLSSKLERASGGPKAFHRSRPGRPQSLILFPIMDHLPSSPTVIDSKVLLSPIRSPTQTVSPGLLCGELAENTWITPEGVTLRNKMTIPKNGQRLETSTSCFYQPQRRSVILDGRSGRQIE

Sequence of ARHGAP30, Q7Z6I6-2 (Q7Z6I6 other isoform, or with tags, fused parts or gaps): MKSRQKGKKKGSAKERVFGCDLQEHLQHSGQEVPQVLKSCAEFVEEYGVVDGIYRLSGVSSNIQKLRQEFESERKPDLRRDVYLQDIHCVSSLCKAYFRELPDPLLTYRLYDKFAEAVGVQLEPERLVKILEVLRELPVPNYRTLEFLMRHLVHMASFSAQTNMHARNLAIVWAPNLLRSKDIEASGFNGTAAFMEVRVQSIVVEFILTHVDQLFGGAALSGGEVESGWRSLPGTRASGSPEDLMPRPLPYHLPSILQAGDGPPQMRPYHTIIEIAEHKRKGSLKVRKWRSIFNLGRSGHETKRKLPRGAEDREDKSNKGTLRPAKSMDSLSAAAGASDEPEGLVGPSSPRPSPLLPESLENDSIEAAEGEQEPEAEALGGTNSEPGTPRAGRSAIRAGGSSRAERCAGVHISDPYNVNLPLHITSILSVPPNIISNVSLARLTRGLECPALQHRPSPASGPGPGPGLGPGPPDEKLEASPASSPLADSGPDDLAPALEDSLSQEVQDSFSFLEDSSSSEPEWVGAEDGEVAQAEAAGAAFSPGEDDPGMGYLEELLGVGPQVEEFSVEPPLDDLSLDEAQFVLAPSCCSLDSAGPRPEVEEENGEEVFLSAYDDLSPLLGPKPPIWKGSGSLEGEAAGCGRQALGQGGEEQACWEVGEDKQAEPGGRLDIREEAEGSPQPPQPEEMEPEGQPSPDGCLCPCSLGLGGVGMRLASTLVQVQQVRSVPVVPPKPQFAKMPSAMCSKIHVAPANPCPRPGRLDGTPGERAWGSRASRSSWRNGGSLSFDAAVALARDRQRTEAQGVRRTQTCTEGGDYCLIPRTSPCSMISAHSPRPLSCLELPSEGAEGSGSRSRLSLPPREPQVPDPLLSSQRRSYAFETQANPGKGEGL
Sequence of Rho-related GTP-binding protein RhoU (Homo sapiens), Q7L0Q8 F86C (Q7L0Q8 whole entry F86C): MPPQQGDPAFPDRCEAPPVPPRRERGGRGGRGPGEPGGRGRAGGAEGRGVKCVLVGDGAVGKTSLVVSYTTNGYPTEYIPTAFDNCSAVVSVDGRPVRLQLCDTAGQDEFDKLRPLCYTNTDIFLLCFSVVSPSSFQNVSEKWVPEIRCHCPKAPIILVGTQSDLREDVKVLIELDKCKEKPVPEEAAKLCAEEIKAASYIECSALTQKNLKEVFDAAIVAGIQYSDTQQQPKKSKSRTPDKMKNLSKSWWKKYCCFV

## Rho-related GTP-binding protein RhoU (Homo sapiens), Q7L0Q8 F83G
[1]
  effect of a mutation on the interaction: disrupting interaction strength
[2]
  effect of a mutation on the interaction: decreasing interaction strength

## Rho-related GTP-binding protein RhoU (Homo sapiens), Q7L0Q8 F86C
[1]
  effect of a mutation on the interaction: with no effect

## Rho-related GTP-binding protein RhoU (Homo sapiens), Q7L0Q8 P80G
[1]
  effect of a mutation on the interaction: with no effect

## Rho-related GTP-binding protein RhoU (Homo sapiens), Q7L0Q8 Q107L
[1]
  effect of a mutation on the interaction: with no effect
[3]
  effect of a mutation on the interaction: with no effect

## Rho-related GTP-binding protein RhoU (Homo sapiens), Q7L0Q8 T63N
[1]
  effect of a mutation on the interaction: with no effect
[3]
  effect of a mutation on the interaction: disrupting interaction strength
